Where no end group is shown, it is not given here. The star is where a group is joined. Biotin = O=C1N[C@H]2[C@H](CS[C@H]2CCCCC(=O)*)N1
B1: Recombinant Full-Length CAPER HCC1.3 (other)
chain: ADDIDIEAMLEAPYKKDENKLSSANGHEERSKKRKKSKSRSRSHERKRSKSKERKRSRDRERKKSKSRERKRSRSKERRRSRSRSRDRRFRGRYRSPYSGPKFNSAIRGKIGLPHSIKLSRRRSRSKSPFRKDKSPVREPIDNLTPEERDARTVFCMQLAARIRPRDLEEFFSTVGKVRDVRMISDRNSRRSKGIAYVEFVDVSSVPLAIGLTGQRVLGVPIIVQASQAEKNRAAAMANNLQKGSAGPMRLYVGSLHFNITEDMLRGIFEPFGRIESIQLMMDSETGRSKGYGFITFSDSECAKKALEQLNGFELAGRPMKVGHVTERTDASSASSFLDSDELERTGIDLGTTGRLQLMARLAEGTGLQIPPAAQQALQMSGSLAFGAVADLQTRLSQQTEASALAAAASVQPLATQCFQLSNMFNPQTEEEVGWDTEIKDDVIEECNKHGGVIHIYVDKNSAQGNVYVKCPSIAAAIAAVNALHGRWFAGKMITAAYVPLPTYHNLFPDSMTATQLLVPSRR
notes: Bought from R&D Systems; also called full-length recombinant CAPER; CAPER isoform HCC1.3
B2: His-tagged recombinant c-Jun (other, UniProt P05412 1-331, looked up)
chain: MTAKMETTFYDDALNASFLPSESGPYGYSNPKILKQSMTLNLADPVGSLKPHLRAKNSDLLTSPDVGLLKLASPELERLIIQSSNGHITTTPTPTQFLCPKNVTDEQEGFAEGFVRALAELHSQNTLPSVTSAAQPVNGAGMVAPAVASVAGGSGSGGFSASLHSEPPVYANLSNFNPGALSSGGGAPSYGAAGLAFPAQPQQQQQPPHHLPQQMPVQHPRLQALKEEPQTVPEMPGETPPLSPIDMESQERIKAERKRMRNRIAASKCRKRKLERIARLEEKVKTLKAQNSELASTANMLREQVAQLKQKVMNHVNSGCQLMLTQQLQTF
notes: Captured on BLI tips by an anti-his tag antibody; also called c-Jun receptor; c-Jun component of AP-1; not shown: his tag

Experiments:
[1] = target: B2; assay: BLI (Octet), His-tagged c-Jun captured on anti-His tips, peptide in solution
[2] = target: B2; assay: BLI (Octet), his-tagged c-Jun captured by anti-his antibody, 1:1 model
[3] = target: T1, Estrogen Receptor α (UniProt P03372 1-595, limits assumed); assay: binding kinetics on ERα (method not described, presumably BLI)
T1 construct: also called ERα; ERa
T1 sequence (looked up): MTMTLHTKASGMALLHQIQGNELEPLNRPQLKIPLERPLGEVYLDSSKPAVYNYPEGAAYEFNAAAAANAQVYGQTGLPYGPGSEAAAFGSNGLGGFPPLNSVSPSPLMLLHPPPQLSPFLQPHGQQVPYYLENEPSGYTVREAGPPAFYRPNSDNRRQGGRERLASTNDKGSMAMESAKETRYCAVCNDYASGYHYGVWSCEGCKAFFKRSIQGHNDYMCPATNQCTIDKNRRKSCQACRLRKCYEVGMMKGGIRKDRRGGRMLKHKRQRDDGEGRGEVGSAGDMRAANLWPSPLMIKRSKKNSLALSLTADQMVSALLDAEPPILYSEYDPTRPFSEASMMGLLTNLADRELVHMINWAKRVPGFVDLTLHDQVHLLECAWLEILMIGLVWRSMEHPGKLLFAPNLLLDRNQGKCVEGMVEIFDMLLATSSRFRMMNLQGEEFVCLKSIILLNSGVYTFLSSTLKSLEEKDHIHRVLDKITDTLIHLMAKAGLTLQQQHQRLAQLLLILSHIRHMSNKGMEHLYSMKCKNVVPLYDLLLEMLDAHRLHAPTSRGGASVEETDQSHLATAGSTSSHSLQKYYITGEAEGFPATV

[4] = target: B1; assay: BLI (Octet), his-tagged c-Jun captured by anti-his antibody, 1:1 model
[5] = target: B2; assay: BLI, his-tagged c-Jun captured by anti-his antibody

| Binder | Kd [2] | koff [2] | kon [2] | Kd [3] | koff [3] | kon [3] | other results |
| --- | --- | --- | --- | --- | --- | --- | --- |
| Biotin-VGDALQGLRLFSTQASIGAQMEQLAAQPLRAGQMLQLAQASPLRT (Control peptide; also called CAPER Scrambled Peptide; CAPER scrambled peptide) [CAPER peptide Scrambled] |  |  |  |  |  |  | binding result [1]: no binding (tested: 1000 (no unit printed on the sheet)) |
| Biotin-RLQLMARLAEGTGLQIPPAAQQALQMSGSLAFGAVAEFSFVIDLQ (Custom synthesized (LifeTein), crude purity, N-terminal biotin) [CAPER peptide HCC1.4 (amino acid residues 356-400)] | 25.6 nM | 0.00098 s⁻¹ | 38300 M⁻¹ s⁻¹ | 30.2 nM | 0.00172 s⁻¹ | 57100 M⁻¹ s⁻¹ |  |
| Biotin-RLQLMARLAEGTGLQIPPAAQQALQMSGSLAFGAVADLQTRLSQQ (Custom synthesized (LifeTein), crude purity, N-terminal biotin; A TAT control peptide was run alongside, so the TAT form is possible) [CAPER peptide HCC1.3 (amino acid residues 356-400)] | 8.89 nM | 0.000337 s⁻¹ | 37900 M⁻¹ s⁻¹ | 4.5 nM | 0.000115 s⁻¹ | 25400 M⁻¹ s⁻¹ |  |
| B1 |  |  |  | 0.02 nM | 2.34e-05 s⁻¹ | 937000 M⁻¹ s⁻¹ |  |
| B2 |  |  |  |  |  |  | Kd [4]: 0.18 nM; koff [4]: 5.66e-05 s⁻¹; kon [4]: 312000 M⁻¹ s⁻¹ |
| Biotin-YGRKKRRQRRR (Control peptide; also called TAT only control) [TAT Control Peptide] |  |  |  |  |  |  | binding result [5]: no binding |
